15 molecules from patent US20250019437A1 can be followed below.

Residue numbers refer to the chain shown, from its start.

First the molecules themselves.
T1: human TREM2 (triggering receptor expressed on myeloid cells 2) (human) (UniProt Q9NZC2)
T1 sequence (looked up): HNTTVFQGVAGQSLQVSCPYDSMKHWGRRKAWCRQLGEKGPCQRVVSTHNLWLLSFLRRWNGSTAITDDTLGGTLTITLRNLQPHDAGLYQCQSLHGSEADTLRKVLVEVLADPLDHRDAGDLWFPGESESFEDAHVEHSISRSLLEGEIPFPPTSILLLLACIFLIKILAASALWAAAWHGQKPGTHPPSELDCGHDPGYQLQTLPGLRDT

B1: 6E7 antibody affinity modulation variant V88 (antibody, V domains shown)
VH: EVQLVQSGAEVKKPGESLKISCKGSGYSFGSYWIAWVRQMPGKGLEWMGIIYPGDSDTRYSPSFQGQVTISADKSISTAYLQWSSLKASDTAMYFCARQRTFYYDSSDYFDYWGQGTLVTVSS
VL: DIQMTQSPSSVSASVGDRVTITCRASQGISSWLAWYQQKPGKAPKLLIYAASRLQRGVPSRFSGSGSGTDFTLTISSLQPEDFATYFCQQADSSPRTFGQGTKLEIK
B2: 6E7 antibody affinity modulation variant V29 (antibody, V domains shown)
VH: B1 VH with G30K
VL: B1 VL with R53S, R56N, S94F
B3: 6E7 antibody affinity modulation variant V17 (antibody, V domains shown)
VH: B1 VH with Q99S
VL: B1 VL with R53S, L54R, R56N
B4: 6E7 antibody affinity modulation variant V28 (antibody, V domains shown)
VH: B1 VH with G30Q, I50T, Y103F
VL: B1 VL with R53S, R56S, S94L
B5: 6E7 antibody affinity modulation variant V5 (antibody, V domains shown)
VH: B1 VH with G30T, I50T
VL: B1 VL with R53S, R56N, S94H
B6: 6E7 antibody affinity modulation variant V89 (antibody, V domains shown)
VH: B1 VH with G30T
VL: B1 VL with R53S, R56N, S94H
B7: 6E7 antibody affinity modulation variant V16 (antibody, V domains shown)
VH: B1 VH with F29M, G30T, S56G, Q99S
VL: B1 VL with R53N, R56N, S94F
B8: 6E7 antibody affinity modulation variant V25 (antibody, V domains shown)
VH: B1 VH with I50L, Q99S
VL: B1 VL with R53S, Q55A, R56N, S94M
B9: 6E7 antibody affinity modulation variant V15 (antibody, V domains shown)
VH: B1 VH with G30A, I50T, Q99S
VL: B1 VL with R53W, R56N, S94Y
B10: 6E7 antibody affinity modulation variant V24 (antibody, V domains shown)
VH: B1 VH with G30T, T58V, Q99S
VL: B1 VL with R53S, R56K, S94F, R96H
B11: 6E7 antibody affinity modulation variant V27 (antibody, V domains shown)
VH: B1 VH with G30T, S61A, A97V, Q99S
VL: B1 VL with R53S, S94F
B12: 6E7 antibody affinity modulation variant V13 (antibody, V domains shown)
VH: B1 VH with P62A, Q99G
VL: B1 VL with R53S, R56G, S94M
B13: 6E7 antibody affinity modulation variant V26 (antibody, V domains shown)
VH: B1 VH with G30T, A35G, I50T, F102M, Y112A
VL: B1 VL with R53S, S94Y
B14: 6E7 antibody affinity modulation variant V14 (antibody, V domains shown)
VH: B1 VH with S56Q, Q99G
VL: B1 VL with R56N, S94F
B15: 6E7 antibody affinity modulation variant V4 (antibody, V domains shown)
VH: B1 VH with Y60V, Q99S
VL: B1 VL with R56N, S94Y

The first test addresses T1, human TREM2 (triggering receptor expressed on myeloid cells 2) (human). In words: 2nd screen, 2 nM Ab.
For B1, the Binding Signal (fold over 6E7 parental antibody) is 5.57 fold.

As for B2, the Binding Signal (fold over 6E7 parental antibody) is 0.84 fold.

Take B3: the Binding Signal (fold over 6E7 parental antibody) was determined as 4.22 fold.

In the case of B4, the Binding Signal (fold over 6E7 parental antibody) is 2.63 fold.

As for B5, the Binding Signal (fold over 6E7 parental antibody) worked out at 1.25 fold.

Consider B6, for which the Binding Signal (fold over 6E7 parental antibody) worked out at 0.94 fold.

For B7, the Binding Signal (fold over 6E7 parental antibody) was determined as 3.57 fold.

Take B8: the Binding Signal (fold over 6E7 parental antibody) stood at 3.15 fold.

Regarding B9, the Binding Signal (fold over 6E7 parental antibody) worked out at 4.72 fold.

In the case of B10, the Binding Signal (fold over 6E7 parental antibody) came to 1.42 fold.

Consider B11, for which the Binding Signal (fold over 6E7 parental antibody) stood at 5.67 fold.

With B12, the Binding Signal (fold over 6E7 parental antibody) came out at 1.15 fold.

As for B13, the Binding Signal (fold over 6E7 parental antibody) is 2.83 fold.

As for B14, the Binding Signal (fold over 6E7 parental antibody) was 2.57 fold.

Regarding B15, the Binding Signal (fold over 6E7 parental antibody) stood at 5.88 fold.

The target is the same in a further test. In words: 1st screen, 10 nM Ab.
In the case of B1, the Binding Signal (fold over 6E7 parental antibody) stood at 4.92 fold.

As to B2, the Binding Signal (fold over 6E7 parental antibody) was 1.53 fold.

As to B3, the Binding Signal (fold over 6E7 parental antibody) was found to be 5.37 fold.

For B4, the Binding Signal (fold over 6E7 parental antibody) was found to be 3.08 fold.

As to B5, the Binding Signal (fold over 6E7 parental antibody) is 2.73 fold.

B6: the Binding Signal (fold over 6E7 parental antibody) was determined as 1.33 fold.

Consider B7, for which the Binding Signal (fold over 6E7 parental antibody) worked out at 4.01 fold.

For B8, the Binding Signal (fold over 6E7 parental antibody) was found to be 4.23 fold.

For the molecule B9, the Binding Signal (fold over 6E7 parental antibody) is 5.23 fold.

Regarding B10, the Binding Signal (fold over 6E7 parental antibody) was 2.64 fold.

Consider B11, for which the Binding Signal (fold over 6E7 parental antibody) amounted to 5.5 fold.

On to B12, for which the Binding Signal (fold over 6E7 parental antibody) is 1.31 fold.

In the case of B13, the Binding Signal (fold over 6E7 parental antibody) turned out to be 3.57 fold.

Turning to B14, the Binding Signal (fold over 6E7 parental antibody) stood at 4.71 fold.

Take B15: the Binding Signal (fold over 6E7 parental antibody) is 6 fold.

The next test has the same target. In words: 2nd screen, 10 nM Ab.
For the molecule B1, the Binding Signal (fold over 6E7 parental antibody) turned out to be 5.3 fold.

Turning to B2, the Binding Signal (fold over 6E7 parental antibody) was 1.67 fold.

Regarding B3, the Binding Signal (fold over 6E7 parental antibody) was found to be 5.51 fold.

With B4, the Binding Signal (fold over 6E7 parental antibody) amounted to 3.61 fold.

On to B5, for which the Binding Signal (fold over 6E7 parental antibody) was determined as 2.84 fold.

In the case of B6, the Binding Signal (fold over 6E7 parental antibody) came to 1.46 fold.

As for B7, the Binding Signal (fold over 6E7 parental antibody) came out at 4.04 fold.

B8: the Binding Signal (fold over 6E7 parental antibody) was determined as 4.7 fold.

As for B9, the Binding Signal (fold over 6E7 parental antibody) came out at 4.78 fold.

Consider B10, for which the Binding Signal (fold over 6E7 parental antibody) came to 2.9 fold.

With B11, the Binding Signal (fold over 6E7 parental antibody) was found to be 5.69 fold.

On to B12, for which the Binding Signal (fold over 6E7 parental antibody) amounted to 1.35 fold.

With B13, the Binding Signal (fold over 6E7 parental antibody) came to 3.47 fold.

For the molecule B14, the Binding Signal (fold over 6E7 parental antibody) is 4.64 fold.

Regarding B15, the Binding Signal (fold over 6E7 parental antibody) stood at 5.51 fold.
